Data published in patent US20260109763A1 (DENALI THERAPEUTICS, published 2026).
Changes are numbered by the printed parent chain. Like-named read-outs stand apart in the source and are kept apart here.

How the values were obtained:
human PILRA G78 on cells [1] = target: T1, human PILRA G78 on cells (human, UniProt Q9UKJ1 20-303); assay: cell-based or functional assay
[2] = target: T2, human PILRB extracellular domain (recombinant) (human, UniProt Q9UKJ0 20-191); assay: SPR, Biacore 8K, recombinant ECD
T2 construct: also called hPILRB
T2 sequence (Q9UKJ0 20-191 limits assumed): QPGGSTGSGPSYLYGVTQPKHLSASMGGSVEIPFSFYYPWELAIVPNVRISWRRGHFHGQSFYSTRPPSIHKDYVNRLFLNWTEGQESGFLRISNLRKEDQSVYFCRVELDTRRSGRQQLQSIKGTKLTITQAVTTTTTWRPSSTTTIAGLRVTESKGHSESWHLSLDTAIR
Protocol: (§1) Antibodies were captured on Biacore™ Series S CM5 sensor chips immobilized with mouse anti-human Fab (human Fab capture kit from GE Healthcare) followed by injections of serial 3-fold dilutions of recombinant ECD reagents at a flow rate of 30 μL/min. Each sample was analyzed using a 3-minute association followed by a 10-minute dissociation. After each injection, the sensor chip was regenerated using a 5 0 mM glycine pH2.0 regeneration buffer. A 1:1 Languir model of simultaneous fitting of kₒₙ and koff was used for kinetics analysis.

human PILRA G78 on cells [3] = target: T1, human PILRA G78 on cells; assay: flow cytometry on HEK293 cells expressing hPILRA G78
Protocol: Parental HEK293 cells were labeled with NucBlue Live ReadyProbes Reagent for 30 mins. […] Antibody binding to the cells was detected by FACS and median fluorescence intensity (MFI) was derived from data analysis performed with the FLOJO software (FIGS. 1A-1C).

[4] = target: T3, human PILRA G78 extracellular domain (recombinant hPILRA ECD) (human, UniProt Q9UKJ1 20-197); assay: SPR, Biacore 8K; antibody captured via anti-human Fab, recombinant ECD injected; 1:1 fit;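 note: CM5 sensor chip, ECD analyte in threefold dilution series at 30 µL/min, 3 min association and 10 min dissociation, kon and koff fitted simultaneously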
T3 construct: also called hPILRA G78
T3 sequence (Q9UKJ1 20-197 R78G limits assumed): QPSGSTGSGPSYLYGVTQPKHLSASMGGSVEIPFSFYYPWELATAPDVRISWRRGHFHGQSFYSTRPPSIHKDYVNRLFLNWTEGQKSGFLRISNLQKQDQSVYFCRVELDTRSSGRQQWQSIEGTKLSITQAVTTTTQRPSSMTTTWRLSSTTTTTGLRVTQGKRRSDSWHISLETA
Protocol: as §1

[5] = target: T4, cynomolgus monkey PILRA extracellular domain (recombinant) (cynomolgus monkey); assay: as above
T4 construct: also called cynoPILRA; Cyno PILRA
T4 sequence (chain, as listed by the source limits assumed): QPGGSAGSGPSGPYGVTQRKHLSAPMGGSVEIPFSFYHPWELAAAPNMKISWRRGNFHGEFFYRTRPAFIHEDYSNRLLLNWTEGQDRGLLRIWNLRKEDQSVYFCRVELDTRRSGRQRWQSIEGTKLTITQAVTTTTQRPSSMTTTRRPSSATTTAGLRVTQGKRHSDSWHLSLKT
Protocol: as §1

[6] = target: T2, human PILRB extracellular domain …; assay: SPR
[7] = target: T3, human PILRA G78 extracellular domain …; assay: SPR
[8] = target: T5, human PILRA R78 extracellular domain (recombinant) (human, UniProt Q9UKJ1 20-197); assay: SPR
T5 construct: also called hPILRA R78
T5 sequence (Q9UKJ1 20-197 limits assumed): as the sequence (Q9UKJ1 20-197 R78G limits assumed) above, with G59R counted along it

[9] = target: T2, human PILRB extracellular domain …; assay: SPR; remark: listed apart in the source
[10] = target: T4, cynomolgus monkey PILRA extracellular …; assay: SPR
human PILRA G78 on cells [11] = target: T1, human PILRA G78 on cells; assay: cell-based or functional assay; remark: listed apart in the source
human PILRA R78 on cells [12] = target: T6, human PILRA R78 on cells (human, UniProt Q9UKJ1 20-303); assay: cell-based or functional assay
T6 sequence (Q9UKJ1 20-303 limits assumed): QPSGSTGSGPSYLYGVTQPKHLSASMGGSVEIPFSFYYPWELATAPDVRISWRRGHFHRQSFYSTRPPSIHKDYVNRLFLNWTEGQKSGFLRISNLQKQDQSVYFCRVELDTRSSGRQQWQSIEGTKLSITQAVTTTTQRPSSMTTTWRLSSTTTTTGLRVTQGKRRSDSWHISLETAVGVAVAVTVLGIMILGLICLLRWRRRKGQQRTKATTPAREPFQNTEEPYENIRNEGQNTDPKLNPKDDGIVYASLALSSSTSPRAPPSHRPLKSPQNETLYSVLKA

human PILRA G78 on cells [13] = target: T1, human PILRA G78 on cells; assay: flow cytometry on HEK293 cells expressing hPILRA G78; remark: listed apart in the source
[14] = target: T3, human PILRA G78 extracellular domain …; assay: SPR, Biacore 8K; hPILRA ECD; antibody with wild-type Fc
Protocol: as §1
Characterization for binding affinities of the humanized antibodies to hPILRA ECD were measured by SPR using a Biacore 8K instrument (Table 7).

human PILRA G78 on cells [15] = target: T1, human PILRA G78 on cells; assay: flow cytometry on PILRA G78 expressing CHO-K1 cells (FIG. 1H)
Protocol: (§2) PILRA G78 or R78 overexpressing HEK293 cells were stained with NucBlue Live cell stain for 30 mins at RT. […] Cell lines were run in duplicate to account for intra-variability, for a total of N=3. The same protocol was used for CHO-K1 cells expressing hPILRA G78.

human PILRA R78 on cells [16] = target: T6, human PILRA R78 on cells; assay: flow cytometry on PILRA R78 expressing HEK293 cells (FIG. 1F); HEK293 cells expressing PILRA R78
Protocol: as §2

[17] = target: T4, cynomolgus monkey PILRA extracellular …; assay: SPR, Biacore 8K, recombinant ECD
Protocol: as §1

T1 sequence (Q9UKJ1 20-303 R78G limits assumed): as the sequence (Q9UKJ1 20-303 limits assumed) above, with R59G counted along it

B1: Anti-PILRA antibody clone 11 (antibody, V domains shown)
VH: EVKLVESGGGLVRPGGSQKLSCAVSGFAFSGYDMSWVRQTPEKRLEWVATISNGGRHTYYPDSVKGRFTISRDNARNTLYLQMSSLRSEDTALYYCARQKTWDVHAMDYWGQGTSVTVSS
VL: QLVLTQSSSASFSLGASAKLTCTLSSQHSTYTIEWYQQQPLKPPKYVMELKKDGSHSTGDGIPDRFSGSSSGADRYLSISNIQPEDEAIYICGVGDTIKEQFVYVFGGGTKVTVL
Human PILRA G78 on cells [1]
  pSTAT3 Y705 induction, Fold Over Background: 1.42 fold
[2]
  binding result: no binding
Human PILRA G78 on cells [3]
  EC50: 10.5 nM
[4]
  Kd: 140 nM
[5]
  Kd: 110 nM

B2: Anti-PILRA antibody clone 36 (antibody, V domains shown)
VH: EVQLVQSGAEVKKPGASVKVSCKASGYTFTEYYMYWVRQAPGQGLELIGRIDPEDGGTDYIEKFKNRVTLTADTSTSTAYLELSSLRSEDTAVYYCATTIRGTVFAFWGQGTLVTVSS
VL: DIQMTQSPSSLSASVGDRVTITCRPSEDIYNGLAWYQQKPGKAPKLLIYNANSLHTGVPSRFSGSGSGTDYTLTISSLQPEDFATYFCQQYYDYPLTFGQGTKVEIK
notes: Humanized
[6]
  Kd: 42 to 97 nM

B3: Anti-PILRA antibody clone 15 (antibody, V domains shown)
VH: B2 VH with V68S, Y95F
VL: B2 VL with P25A, Y30F, A43S, N52K, S53T, T69S
notes: Humanized; also called Ab.15
[7]
  Kd: 0.65 nM
[8]
  Kd: 10 nM
[9]
  Kd: 95 nM
[10]
  Kd: 0.72 nM
Human PILRA G78 on cells [11]
  pSTAT3 S727 induction, EC50 (nM): 17.5 nM
  pSTAT3 S727 induction, Fold Over Background: 32.2 fold
  pSTAT3 Y705 induction, EC50 (nM): 16.9 nM
  pSTAT3 Y705 induction, Fold Over Background: 33.5 fold
Human PILRA R78 on cells [12]
  pSTAT3 S727 induction, EC50 (nM): 12.7 nM
  pSTAT3 S727 induction, Fold Over Background: 24.8 fold
  pSTAT3 Y705 induction, EC50 (nM): 5.66 nM
  pSTAT3 Y705 induction, Fold Over Background: 38.2 fold
Human PILRA G78 on cells [13]
  EC50: 11.2 nM
[14]
  Kd: 0.917 nM
Human PILRA G78 on cells [15]
  EC50: 9 nM
Human PILRA R78 on cells [16]
  EC50: 2.7 nM

B4: Anti-PILRA antibody clone 37 (antibody, V domains shown)
VH: B2 VH
VL: B2 VL with P25A, Y30F, A43S, N52K, S53T, F87Y
notes: Humanized
[6]
  Kd: 100 to 150 nM

B5: Anti-PILRA antibody clone 3 (antibody, V domains shown)
VH: EVQLVESGGGLVQPGRSLRLSCAASGFTFDDYAIHWVRQAPGKGLEWVSGMSWNSGSIGYGDSVKGRFTISRDNAKNSLYLQMNSLRAEDTAFYYCAKDKSIGAAGRFDCWGQGTLVTVSS
VL: not shown
[2]
  binding result: no binding
Human PILRA G78 on cells [3]
  EC50: 14.1 nM
[4]
  Kd: 1.7 nM
[5]
  Kd: 3 nM

B6: Anti-PILRA antibody clone 9 (antibody, V domains shown)
VH: QVQLQESGPGLVKPSGTLSLTCAVSGGSISSNNWWSWVRQPPGKGLEWIGEIYHFGTTTYNPSLKSRVTISVDKSKNQFSLKLSSLTAADTAVYYCARTLRDFYYYMDVWGKGTTVTVSS
VL: DIHMTQSPSSLSASVGDRVTITCRTSQNINTYLNWYQQRPGRAPKLLIYAASSLQSGVPSRFSGSGSGTDFILSISSLQPEDFATYYCQQSFNIPLTFGGGTKVEIK
notes: also called Ab; Clone 9
Human PILRA G78 on cells [1]
  pSTAT3 Y705 induction, EC50 (nM): 5.93 nM
  pSTAT3 Y705 induction, Fold Over Background: 16.9 fold
[2]
  binding result: no binding
[17]
  binding result: no binding
Human PILRA G78 on cells [3]
  EC50: 1.28 nM
[4]
  Kd: 1.6 nM

B7: Anti-PILRA antibody clone 10 (antibody, V domains shown)
VH: EVQLVQSGAEIRKPGESLKISCKGSGYSFTTYWIAWVRQMPGKGLEWMGIIYPGDSDTRYSPSFQGQVTISADKSITTAYLQWSSLKASDTGIYYCARTYYYFSGSHWDAFDIWGQGTMVTVSS
VL: DIQMTQSPSSVSAYVGDRVTITCRASQDIRDCLAWYQQKPGKAPKFLIYAASSFQSGVPSGFSGSGSGTDFTLTVTSLQPEDSATYYCQQTHSFPYTFGQGTKLEIK
notes: also called Ab; Clone 10
Human PILRA G78 on cells [1]
  pSTAT3 Y705 induction, EC50 (nM): 5.69 nM
  pSTAT3 Y705 induction, Fold Over Background: 26.7 fold
[2]
  binding result: no binding
[17]
  binding result: no binding
Human PILRA G78 on cells [3]
  EC50: 1.28 nM
[4]
  Kd: 61 nM

B8: Anti-PILRA antibody clone 8 (antibody, V domains shown)
VH: QVQLVQSGAEVKKPGASVKVSCKASGYTFTGHYMHWVRQAPGQGLEWMGWINPNSGDTDYAQKFQGRVTMTRDTSISTAYMDLNRLRSDDTAVFYCAREGLDGDPFDYWGQGTLVTVSS
VL: EIMLTQTPLSSPVTLGQPASISCRSSQSLVHSDGNTYLSWLQQRPGQPPRLLIYNISNRFSGVPDRFSGRGAGTDFTLKISRVEAEDVGVYYCIQTTQFSTFGQGTKLEIK
[2]
  binding result: no binding
Human PILRA G78 on cells [3]
  EC50: 536 nM
[4]
  Kd: 11 nM
[5]
  Kd: 59 nM

B9: Anti-PILRA antibody clone 32 (antibody, V domains shown)
VH: B2 VH
VL: B2 VL with A43S
notes: Humanized
[14]
  Kd: 2.8 nM

B10: Anti-PILRA antibody clone 13 (antibody, V domains shown)
VH: B2 VH
VL: B2 VL with P25A, Y30F, A43S, N52K, S53T, T69S
notes: Humanized
[14]
  Kd: 0.655 nM

B11: Anti-PILRA antibody clone 14 (antibody, V domains shown)
VH: B2 VH with L70I, Y95F
VL: B2 VL with P25A, Y30F, A43S, N52K, S53T, T69S
notes: Humanized
[14]
  Kd: 1.63 nM

B12: Anti-PILRA antibody clone 16 (antibody, V domains shown)
VH: B2 VH with I61V, V68A, L70I, T98S, A106V, F107Y
VL: B2 VL with P25A, Y30F, A43S, N52K, S53T, T69S
notes: Humanized
[14]
  Kd: 11 nM

B13: Anti-PILRA antibody clone 17 (antibody, V domains shown)
VH: B2 VH with I61V, T98S, A106V, F107Y
VL: B2 VL with P25A, Y30F, A43S, N52K, S53T, T69S
notes: Humanized
[14]
  Kd: 1.29 nM

B14: Anti-PILRA antibody clone 18 (antibody, V domains shown)
VH: B2 VH with I61V, L70I, Y95F, T98S, A106V, F107Y
VL: B2 VL with P25A, Y30F, A43S, N52K, S53T, T69S
notes: Humanized
[14]
  Kd: 7.53 nM

B15: Anti-PILRA antibody clone 19 (antibody, V domains shown)
VH: B2 VH with I61V, V68A, Y95F, T98S, A106V, F107Y
VL: B2 VL with P25A, Y30F, A43S, N52K, S53T, T69S
notes: Humanized
[14]
  Kd: 2 nM

B16: Anti-PILRA antibody clone 20 (antibody, V domains shown)
VH: B2 VH
VL: B2 VL with F87Y
notes: Humanized
[14]
  Kd: 1.73 nM

B17: Anti-PILRA antibody clone 21 (antibody, V domains shown)
VH: B2 VH with V68S, Y95F
VL: B2 VL with F87Y
notes: Humanized
[14]
  Kd: 0.667 nM

B18: Anti-PILRA antibody clone 22 (antibody, V domains shown)
VH: B2 VH with I61V, T98S, A106V, F107Y
VL: B2 VL with F87Y
notes: Humanized
[14]
  Kd: 0.515 nM

B19: Anti-PILRA antibody clone 25 (antibody, V domains shown)
VH: B2 VH with V68S, Y95F
VL: B2 VL
notes: Humanized
[14]
  Kd: 0.794 nM

B20: Anti-PILRA antibody clone 26 (antibody, V domains shown)
VH: B2 VH with I61V, T98S, A106V, F107Y
VL: B2 VL
notes: Humanized
[14]
  Kd: 0.511 nM

B21: Anti-PILRA antibody clone 27 (antibody, V domains shown)
VH: B2 VH with I61V, V68A, Y95F, T98S, A106V, F107Y
VL: B2 VL
notes: Humanized
[14]
  Kd: 0.536 nM

B22: Anti-PILRA antibody clone 29 (antibody, V domains shown)
VH: B2 VH with V68S, Y95F
VL: B2 VL with P25A, Y30F, A43S, N52K, S53T, F87Y
notes: Humanized
[14]
  Kd: 1.28 nM

B23: Anti-PILRA antibody clone 30 (antibody, V domains shown)
VH: B2 VH with I61V, T98S, A106V, F107Y
VL: B2 VL with P25A, Y30F, A43S, N52K, S53T, F87Y
notes: Humanized
[14]
  Kd: 0.878 nM

B24: Anti-PILRA antibody clone 31 (antibody, V domains shown)
VH: B2 VH with I61V, V68A, Y95F, T98S, A106V, F107Y
VL: B2 VL with P25A, Y30F, A43S, N52K, S53T, F87Y
notes: Humanized
[14]
  Kd: 0.915 nM

B25: Anti-PILRA antibody clone 33 (antibody, V domains shown)
VH: B2 VH with V68S, Y95F
VL: B2 VL with A43S
notes: Humanized
[14]
  Kd: 2.04 nM

B26: Anti-PILRA antibody clone 34 (antibody, V domains shown)
VH: B2 VH with I61V, T98S, A106V, F107Y
VL: B2 VL with A43S
notes: Humanized
[14]
  Kd: 1.8 nM
